Assay results: paper PMC12245028

Target: p65 (RELA, Transcription factor p65) (UniProt Q04206)
Assay: anti-HA co-IP, p65 blot
Details: reference: HA-WEE1 wild type; sites S642

binding against the reference: lost
Substance: HA-WEE1 (from UniProt P30291) HA-WEE1 S642A
